B1: SPIN (Staphylococcal Peroxidase INhibitor) from S. aureus strain Newman (natural protein)
chain: KVYSQNGLVLHDDANFLEHELSYIDVLLDKNADQATKDNLRSYFADKGLHSIKDIINKAKQDGFDVSKYEHVK

This note sets out measurements from PMC5899673.

By Kd is commonly meant the constant that tells how readily two partners part at equilibrium. What is called koff is the rate constant with which the complex falls apart. A high value points to a short-lived complex. In general, kon refers to the rate constant with which the complex forms. Low readings indicate slower complex formation, high ones faster complex formation.

This assay addresses Native human myeloperoxidase (MPO) isolated from purulent sputum (human) (UniProt P05164). Briefly: SPR.
Sequence of UniProt P05164 (P05164 165-745): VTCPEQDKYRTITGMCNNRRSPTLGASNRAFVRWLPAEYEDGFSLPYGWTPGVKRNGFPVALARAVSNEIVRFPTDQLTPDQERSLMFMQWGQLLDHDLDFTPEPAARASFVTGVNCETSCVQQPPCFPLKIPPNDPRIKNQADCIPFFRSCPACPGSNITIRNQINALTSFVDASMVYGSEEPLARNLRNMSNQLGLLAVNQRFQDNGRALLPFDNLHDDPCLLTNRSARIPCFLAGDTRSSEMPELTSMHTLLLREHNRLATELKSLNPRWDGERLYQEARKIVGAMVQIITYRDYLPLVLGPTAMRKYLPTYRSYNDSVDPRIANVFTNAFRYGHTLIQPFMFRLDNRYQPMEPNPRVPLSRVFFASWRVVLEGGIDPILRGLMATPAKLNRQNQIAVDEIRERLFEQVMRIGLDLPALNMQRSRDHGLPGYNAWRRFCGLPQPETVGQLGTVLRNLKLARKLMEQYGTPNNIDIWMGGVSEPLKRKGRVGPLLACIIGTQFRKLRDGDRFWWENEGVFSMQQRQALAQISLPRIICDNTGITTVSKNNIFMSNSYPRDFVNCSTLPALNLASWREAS
As to “SPIN-delphini (SPIN from Staphylococcus delphini) (natural protein)”, the Kd was determined as 310 nM, the koff turned out to be 0.00334 s⁻¹ and the kon amounted to 10800 M⁻¹ s⁻¹.
Molecule “SPIN-intermedius (SPIN homolog from S. intermedius) (natural protein)” came in with a Kd of 984 nM, a dissociation rate constant (koff) of 0.00334 s⁻¹ and a kon of 3500 M⁻¹ s⁻¹.
Consider “SPIN-schleiferi (SPIN homolog from S. schleiferi) (natural protein)”, for which the Kd amounted to 230 nM, the koff was 0.00252 s⁻¹ and the kon was determined as 11200 M⁻¹ s⁻¹.
For the molecule “SPIN-agnetis (SPIN homolog from S. agnetis) (natural protein)”, the Kd was 41.8 nM, the dissociation rate constant (koff) was determined as 0.00236 s⁻¹ and the kon worked out at 56400 M⁻¹ s⁻¹.
On to B1, for which the Kd stood at 15.9 nM, the koff was 0.00316 s⁻¹ and the kon is 201000 M⁻¹ s⁻¹.
